This is an account of results in PMC8009872, “Beam image-shift accelerated data acquisition for near-atomic resolution single-particle cryo-electron tomography” (Nature Communications, 2021).

This series concerns the molecule itself. Kind of series: cryo-EM structure.

B1: protein VC1979 of Vibrio cholerae (dNTPase) (enzyme)
chain: QVSLNPEWLARNNDEHKIRRNDHRSPFQRDRARILHSAAFRRLQAKTQVHGTSLNDFHRTRLTHSLEAAQIGTGIVAQIKLKQPEFRELLPSDSLIDSLCLAHDIGHPPYGHGGEIALNYMMRDHGGFEGNAQTFRIVTSLEPYTEHHGMNLSRRTLLGLLKYPALLSATRAAIPPPAVAHQRQLKAKDWSPAKGIYDCDLASLDWVLEPLCESDRELLGQMRAEPSSPKEHRKTRFKSLDCSIMELADDIAYGVHDLEDAIVLGMVTRAQWQEAAAAQLAECGDPWFEEHIAELSEMLFSGKHYVRKDAIGGIVNALLTSISVKPVEAPFHNELLAFNAYIEPHMGNALEVLKHFVSQYVIQIPQVQRFEYKGQQLIMDLFEALSADPERLLPQATGEKWRKAQEQDEGMRVICDYIAAMTDAYAQRLHQQLFSAQSHY
As for B1, the “stoichiometry N” value was 6.

Usually stoichiometry N stands for the number of molecules, sites or subunits per partner or assembly.
